Patent publication US8685665 (CHEMO SERO THERAPEUTIC RESEARCH INSTITUTE, dated 2014)

T1: FRETS-VWF73, P04275
T1 chain: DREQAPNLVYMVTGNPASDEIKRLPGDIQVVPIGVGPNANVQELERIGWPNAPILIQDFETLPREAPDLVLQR


Target: T1, FRETS-VWF73, P04275
Experiment: not given

Binder | cleaving activity to FRETS-VWF73, relative activity against wild type W688X
ADAMTS-13W688X mutant R659A (protein) AAGGILHLELLVAVGPDVFQAHQEDTERYVLTNLNIGAELLRDPSLGAQFRVHLVKMVILTEPEGAPNITANLTSSLLSVCGWSQTINPEDDTDPGHADLVLYITRFDLELPDGNRQVRGVTQLGGACSPTWSCLITEDTGFDLGVTIAHEIGHSFGLEHDGAPGSGCGPSGHVMASDGAAPRAGLAWSPCSRRQLLSLLSAGRARCVWDPPRPQPGSAGHPPDAQPGLYYSANEQCRVAFGPKAVACTFAREHLDMCQALSCHTDPLDQSSCSRLLVPLLDGTECGVEKWCSKGRCRSLVELTPIAAVHGRWSSWGPRSPCSRSCGGGVVTRRRQCNNPRPAFGGRACVGADLQAEMCNTQACEKTQLEFMSQQCARTDGQPLRSSPGGASFYHWGAAVPHSQGDALCRHMCRAIGESFIMKRGDSFLDGTRCMPSGPREDGTLSLCVSGSCRTFGCDGRMDSQQVWDRCQVCGGDNSTCSPRKGSFTAGRAREYVTFLTVTPNLTSVYIANHRPLFTHLAVRIGGRYVVAGKMSISPNTTYPSLLEDGRVEYRVALTEDRLPRLEEIRIWGPLQEDADIQVYARYGEEYGNLTRPDITFTYFQPKPRQAWVW | the elevated enzymatic activity was observed
ADAMTS-13W688X mutant R568A (protein) AAGGILHLELLVAVGPDVFQAHQEDTERYVLTNLNIGAELLRDPSLGAQFRVHLVKMVILTEPEGAPNITANLTSSLLSVCGWSQTINPEDDTDPGHADLVLYITRFDLELPDGNRQVRGVTQLGGACSPTWSCLITEDTGFDLGVTIAHEIGHSFGLEHDGAPGSGCGPSGHVMASDGAAPRAGLAWSPCSRRQLLSLLSAGRARCVWDPPRPQPGSAGHPPDAQPGLYYSANEQCRVAFGPKAVACTFAREHLDMCQALSCHTDPLDQSSCSRLLVPLLDGTECGVEKWCSKGRCRSLVELTPIAAVHGRWSSWGPRSPCSRSCGGGVVTRRRQCNNPRPAFGGRACVGADLQAEMCNTQACEKTQLEFMSQQCARTDGQPLRSSPGGASFYHWGAAVPHSQGDALCRHMCRAIGESFIMKRGDSFLDGTRCMPSGPREDGTLSLCVSGSCRTFGCDGRMDSQQVWDRCQVCGGDNSTCSPRKGSFTAGRAAEYVTFLTVTPNLTSVYIANHRPLFTHLAVRIGGRYVVAGKMSISPNTTYPSLLEDGRVEYRVALTEDRLPRLEEIRIWGPLQEDADIQVYRRYGEEYGNLTRPDITFTYFQPKPRQAWVW | the elevated enzymatic activity was observed
ADAMTS-13W688X mutant R326A (protein) AAGGILHLELLVAVGPDVFQAHQEDTERYVLTNLNIGAELLRDPSLGAQFRVHLVKMVILTEPEGAPNITANLTSSLLSVCGWSQTINPEDDTDPGHADLVLYITRFDLELPDGNRQVRGVTQLGGACSPTWSCLITEDTGFDLGVTIAHEIGHSFGLEHDGAPGSGCGPSGHVMASDGAAPRAGLAWSPCSRRQLLSLLSAGRARCVWDPPRPQPGSAGHPPDAQPGLYYSANEQCRVAFGPKAVACTFAAEHLDMCQALSCHTDPLDQSSCSRLLVPLLDGTECGVEKWCSKGRCRSLVELTPIAAVHGRWSSWGPRSPCSRSCGGGVVTRRRQCNNPRPAFGGRACVGADLQAEMCNTQACEKTQLEFMSQQCARTDGQPLRSSPGGASFYHWGAAVPHSQGDALCRHMCRAIGESFIMKRGDSFLDGTRCMPSGPREDGTLSLCVSGSCRTFGCDGRMDSQQVWDRCQVCGGDNSTCSPRKGSFTAGRAREYVTFLTVTPNLTSVYIANHRPLFTHLAVRIGGRYVVAGKMSISPNTTYPSLLEDGRVEYRVALTEDRLPRLEEIRIWGPLQEDADIQVYRRYGEEYGNLTRPDITFTYFQPKPRQAWVW | the elevated enzymatic activity was observed
ADAMTS-13W688X mutant R370A (protein) AAGGILHLELLVAVGPDVFQAHQEDTERYVLTNLNIGAELLRDPSLGAQFRVHLVKMVILTEPEGAPNITANLTSSLLSVCGWSQTINPEDDTDPGHADLVLYITRFDLELPDGNRQVRGVTQLGGACSPTWSCLITEDTGFDLGVTIAHEIGHSFGLEHDGAPGSGCGPSGHVMASDGAAPRAGLAWSPCSRRQLLSLLSAGRARCVWDPPRPQPGSAGHPPDAQPGLYYSANEQCRVAFGPKAVACTFAREHLDMCQALSCHTDPLDQSSCSRLLVPLLDGTECGVEKWCSKGACRSLVELTPIAAVHGRWSSWGPRSPCSRSCGGGVVTRRRQCNNPRPAFGGRACVGADLQAEMCNTQACEKTQLEFMSQQCARTDGQPLRSSPGGASFYHWGAAVPHSQGDALCRHMCRAIGESFIMKRGDSFLDGTRCMPSGPREDGTLSLCVSGSCRTFGCDGRMDSQQVWDRCQVCGGDNSTCSPRKGSFTAGRAREYVTFLTVTPNLTSVYIANHRPLFTHLAVRIGGRYVVAGKMSISPNTTYPSLLEDGRVEYRVALTEDRLPRLEEIRIWGPLQEDADIQVYRRYGEEYGNLTRPDITFTYFQPKPRQAWVW | the elevated enzymatic activity was observed

Target: T2, von Willebrand factor derived from human plasma (human, UniProt P04275 764-2813)
T2 construct: mature; also called VWF; natural substrate VWF
Experiment: ELISA, plasma VWF immobilized on plate, relative to wild type W688X
Experimental: Each of the purified mutants of Example 3 was evaluated for their binding ability to VWF derived from human plasma immobilized on ELISA plate as described in Non-patent reference 8. The concentration was normalized by sandwich ELISA using the anti-human ADAMTS-13 rabbit polyclonal antibody and an HRP labeled form of the anti-FLAGM2 murine monoclonal antibody (SIGMA CORPORATION) as described above and the VWF binding ability per unit concentration was quantified. Finally, the mutants were evaluated for a relative activity as compared to the specific activity of wild type W688X with no alanine substitution, the specific activity of which is 1.

Binder | binding result
ADAMTS-13W688X mutant D343A (enzyme, human, UniProt Q76LX8 75-688, looked up, Disintegrin-like domain mutant; also called D343(10); not shown: C-terminal FLAG tag) AAGGILHLELLVAVGPDVFQAHQEDTERYVLTNLNIGAELLRDPSLGAQFRVHLVKMVILTEPEGAPNITANLTSSLLSVCGWSQTINPEDDTDPGHADLVLYITRFDLELPDGNRQVRGVTQLGGACSPTWSCLITEDTGFDLGVTIAHEIGHSFGLEHDGAPGSGCGPSGHVMASDGAAPRAGLAWSPCSRRQLLSLLSAGRARCVWDPPRPQPGSAGHPPDAQPGLYYSANEQCRVAFGPKAVACTFAREHLDMCQALSCHTDPLAQSSCSRLLVPLLDGTECGVEKWCSKGRCRSLVELTPIAAVHGRWSSWGPRSPCSRSCGGGVVTRRRQCNNPRPAFGGRACVGADLQAEMCNTQACEKTQLEFMSQQCARTDGQPLRSSPGGASFYHWGAAVPHSQGDALCRHMCRAIGESFIMKRGDSFLDGTRCMPSGPREDGTLSLCVSGSCRTFGCDGRMDSQQVWDRCQVCGGDNSTCSPRKGSFTAGRAREYVTFLTVTPNLTSVYIANHRPLFTHLAVRIGGRYVVAGKMSISPNTTYPSLLEDGRVEYRVALTEDRLPRLEEIRIWGPLQEDADIQVYRRYGEEYGNLTRPDITFTYFQPKPRQAWVW | binds
ADAMTS-13W688X mutant R660A (enzyme, human, UniProt Q76LX8 75-688, looked up, Spacer domain mutant; also called R660(68); not shown: C-terminal FLAG tag) AAGGILHLELLVAVGPDVFQAHQEDTERYVLTNLNIGAELLRDPSLGAQFRVHLVKMVILTEPEGAPNITANLTSSLLSVCGWSQTINPEDDTDPGHADLVLYITRFDLELPDGNRQVRGVTQLGGACSPTWSCLITEDTGFDLGVTIAHEIGHSFGLEHDGAPGSGCGPSGHVMASDGAAPRAGLAWSPCSRRQLLSLLSAGRARCVWDPPRPQPGSAGHPPDAQPGLYYSANEQCRVAFGPKAVACTFAREHLDMCQALSCHTDPLDQSSCSRLLVPLLDGTECGVEKWCSKGRCRSLVELTPIAAVHGRWSSWGPRSPCSRSCGGGVVTRRRQCNNPRPAFGGRACVGADLQAEMCNTQACEKTQLEFMSQQCARTDGQPLRSSPGGASFYHWGAAVPHSQGDALCRHMCRAIGESFIMKRGDSFLDGTRCMPSGPREDGTLSLCVSGSCRTFGCDGRMDSQQVWDRCQVCGGDNSTCSPRKGSFTAGRAREYVTFLTVTPNLTSVYIANHRPLFTHLAVRIGGRYVVAGKMSISPNTTYPSLLEDGRVEYRVALTEDRLPRLEEIRIWGPLQEDADIQVYRAYGEEYGNLTRPDITFTYFQPKPRQAWVW | binds
ADAMTS-13W688X mutant E327A (enzyme, human, UniProt Q76LX8 75-688, looked up, Disintegrin-like domain mutant; also called E327(7); E327 mutant; not shown: C-terminal FLAG tag) AAGGILHLELLVAVGPDVFQAHQEDTERYVLTNLNIGAELLRDPSLGAQFRVHLVKMVILTEPEGAPNITANLTSSLLSVCGWSQTINPEDDTDPGHADLVLYITRFDLELPDGNRQVRGVTQLGGACSPTWSCLITEDTGFDLGVTIAHEIGHSFGLEHDGAPGSGCGPSGHVMASDGAAPRAGLAWSPCSRRQLLSLLSAGRARCVWDPPRPQPGSAGHPPDAQPGLYYSANEQCRVAFGPKAVACTFARAHLDMCQALSCHTDPLDQSSCSRLLVPLLDGTECGVEKWCSKGRCRSLVELTPIAAVHGRWSSWGPRSPCSRSCGGGVVTRRRQCNNPRPAFGGRACVGADLQAEMCNTQACEKTQLEFMSQQCARTDGQPLRSSPGGASFYHWGAAVPHSQGDALCRHMCRAIGESFIMKRGDSFLDGTRCMPSGPREDGTLSLCVSGSCRTFGCDGRMDSQQVWDRCQVCGGDNSTCSPRKGSFTAGRAREYVTFLTVTPNLTSVYIANHRPLFTHLAVRIGGRYVVAGKMSISPNTTYPSLLEDGRVEYRVALTEDRLPRLEEIRIWGPLQEDADIQVYRRYGEEYGNLTRPDITFTYFQPKPRQAWVW | binds
ADAMTS-13W688X mutant R488A (enzyme, human, UniProt Q76LX8 75-688, looked up, Cysteine-rich domain mutant; also called R488(26); not shown: C-terminal FLAG tag) AAGGILHLELLVAVGPDVFQAHQEDTERYVLTNLNIGAELLRDPSLGAQFRVHLVKMVILTEPEGAPNITANLTSSLLSVCGWSQTINPEDDTDPGHADLVLYITRFDLELPDGNRQVRGVTQLGGACSPTWSCLITEDTGFDLGVTIAHEIGHSFGLEHDGAPGSGCGPSGHVMASDGAAPRAGLAWSPCSRRQLLSLLSAGRARCVWDPPRPQPGSAGHPPDAQPGLYYSANEQCRVAFGPKAVACTFAREHLDMCQALSCHTDPLDQSSCSRLLVPLLDGTECGVEKWCSKGRCRSLVELTPIAAVHGRWSSWGPRSPCSRSCGGGVVTRRRQCNNPRPAFGGRACVGADLQAEMCNTQACEKTQLEFMSQQCARTDGQPLRSSPGGASFYHWGAAVPHSQGDALCRHMCAAIGESFIMKRGDSFLDGTRCMPSGPREDGTLSLCVSGSCRTFGCDGRMDSQQVWDRCQVCGGDNSTCSPRKGSFTAGRAREYVTFLTVTPNLTSVYIANHRPLFTHLAVRIGGRYVVAGKMSISPNTTYPSLLEDGRVEYRVALTEDRLPRLEEIRIWGPLQEDADIQVYRRYGEEYGNLTRPDITFTYFQPKPRQAWVW | binds
ADAMTS-13W688X mutant D480A (enzyme, human, UniProt Q76LX8 75-688, looked up, Cysteine-rich domain mutant; also called D480(24); not shown: C-terminal FLAG tag) AAGGILHLELLVAVGPDVFQAHQEDTERYVLTNLNIGAELLRDPSLGAQFRVHLVKMVILTEPEGAPNITANLTSSLLSVCGWSQTINPEDDTDPGHADLVLYITRFDLELPDGNRQVRGVTQLGGACSPTWSCLITEDTGFDLGVTIAHEIGHSFGLEHDGAPGSGCGPSGHVMASDGAAPRAGLAWSPCSRRQLLSLLSAGRARCVWDPPRPQPGSAGHPPDAQPGLYYSANEQCRVAFGPKAVACTFAREHLDMCQALSCHTDPLDQSSCSRLLVPLLDGTECGVEKWCSKGRCRSLVELTPIAAVHGRWSSWGPRSPCSRSCGGGVVTRRRQCNNPRPAFGGRACVGADLQAEMCNTQACEKTQLEFMSQQCARTDGQPLRSSPGGASFYHWGAAVPHSQGAALCRHMCRAIGESFIMKRGDSFLDGTRCMPSGPREDGTLSLCVSGSCRTFGCDGRMDSQQVWDRCQVCGGDNSTCSPRKGSFTAGRAREYVTFLTVTPNLTSVYIANHRPLFTHLAVRIGGRYVVAGKMSISPNTTYPSLLEDGRVEYRVALTEDRLPRLEEIRIWGPLQEDADIQVYRRYGEEYGNLTRPDITFTYFQPKPRQAWVW | binds
